Assay [1] has as its system pEY. In words: In vitro kinase library screen: activity towards pEY. The format is biochemical. The following applies: 5 ul of expressed protein. Here is the method:
Proteins were produced in an in vitro transcription and translation reaction. […] The unbound components of the reaction containing endogenous kinases were removed by three washes with TT-buffer (25 mM Tris-HCl buffer pH 7.4 and 0.004% Triton), two five minutes washings with high-salt wash buffer (25 mM Tris-HCl buffer pH 7.4, 0.004% Triton, 1M NaCl and 5 mM DTT) and 3 more washes with TT-buffer. To these immobilized and purified proteins a tyrosine kinase substrate, 5 nM pEY (poly Glu-Tyr, Sigma, MO), was added in a 50 μl reaction solution containing 5 mM MgCl2, 5 mM MnCl2, 100 μM ATP, 25 mM Tris-HCl buffer pH 7.4, 0.05 mM Na3VO4, 0.004% TritonX-100, 2 mM DTT and EDTA-free protease inhibitor (Roche Molecular Biochemicals). This mixture was incubated with shaking at room temperature overnight to allow phosphorylation of the pEY substrate by the immobilized kinases. Following this incubation, 45 μl of this mixture was transferred to a streptavidin or avidin-coated NPT IPR plate coated with biotinylated anti-phosphotyrosine antibody (PY20, Zymed labs, CA) followed by incubation for 30 minutes at room temperature to allow the binding of the phosphorylated pEY substrate to the PY20 coated NPT plate. Following this binding step, 50 ng Sulfo-TAG labeled anti-phosphotyrosine in buffer containing 25 mM Tris-HCl buffer pH 7.4, 5 mM MgCl2, 0.05 mM Na3VO4, 0.004% TritonX-100, 2 mM DTT and 0.05% IgG was added followed by incubation at room temperature for 30 mm. The unbound reagents were removed by one time washing with water, and the TAG label was detected in presence of 150 μl IPR assay buffer (0.4 mM Gly-Gly buffer, pH 7.8, 1 mM EDTA, 0.1 M TPA). The ECL signals were measured using an imaging plate reader.
(§1) Proteins were produced in an in vitro transcription and translation reaction as described in the Materials and Methods. […] The reaction was stopped by mixing with BB2 buffer. Biotinylated proteins from 50 μl of the mixture (representing 0.5 μl to 5 μl of TnT reaction) were immobilized onto streptavidin or avidin coated NPT-IPR plates by shaking at room temperature for 45 min. The activity of the immobilized protein towards pEY or autophosphorylation was further assayed by the methods described in examples 7 and 8.

Assay [2] has as its system autophosphorylation (phosphotyrosine). In words: In vitro kinase library screen: autophosphorylation. The format is biochemical. Here is the method:
Proteins were produced from DNA plasmids of Mock Luciferase, Promega, tyrosine kinase clone Spleen Tyrosine kinase (SYK, IMAGE ID# 3870426) and Eph receptor-A7 (EphA7, IMAGE ID# 3991628) (Incyte Genomics, CA) and immobilized on streptavidin or avidin coated NPT-IPR plates as described in the Example 7. To promote autophosphorylation in these immobilized and purified proteins, Mn++ ions were added in a 50 μl reaction containing 5 mM MgCl2, 5 mM MnCl2, 100 μM ATP, 25 mM Tris-HCl buffer pH 7.4, 0.05 mM Na3VO4, 0.004% TritonX-100, 2 mM DTT and EDTA-free protease inhibitor (Roche Molecular Biochemicals). This mixture was incubated with shaking at room temperature overnight to allow autophosphorylation. Following this incubation, wells were washed 2 times with TT-buffer and 2 times with water. Following this step, 50 ng Sulfo-TAG labeled anti-phosphotyrosine in buffer containing 25 mM Tris-HCl buffer pH 7.4, 5 mM MgCl2, 0.05 mM Na3VO4, 0.004% TritonX-100, 2 mM DTT and 0.05% IgG in a final volume of 50 μl was added followed by incubation at room temperature for 45 min. The unbound reagents were removed by one time washing with water, and the TAG label was detected in presence of 150 μl IPR assay buffer (0.4 mM Gly—Gly buffer, pH 7.8, 1 mM EDTA, 0.1 M TPA). The ECL signals were measured using an imaging plate reader.
as §1

B1: 4013934: IMAGE clone protein: Ephb4, Eph receptor B4 (protein, UniProt P54761 16-987, looked up)
Ephrin type-B receptor 4: LEETLLNTKLETADLKWVTYPQAEGQWEELSGLDEEQHSVRTYEVCDMKRPGGQAHWLRTGWVPRRGAVHVYATIRFTMMECLSLPRASRSCKETFTVFYYESEADTATAHTPAWMENPYIKVDTVAAEHLTRKRPGAEATGKVNIKTLRLGPLSKAGFYLAFQDQGACMALLSLHLFYKKCSWLITNLTYFPETVPRELVVPVAGSCVANAVPTANPSPSLYCREDGQWAEQQVTGCSCAPGYEAAESNKVCRACGQGTFKPQIGDESCLPCPANSHSNNIGSPVCLCRIGYYRARSDPRSSPCTTPPSAPRSVVHHLNGSTLRLEWSAPLESGGREDLTYAVRCRECRPGGSCLPCGGDMTFDPGPRDLVEPWVAIRGLRPDVTYTFEVAALNGVSTLATGPPPFEPVNVTTDREVPPAVSDIRVTRSSPSSLILSWAIPRAPSGAVLDYEVKYHEKGAEGPSSVRFLKTSENRAELRGLKRGASYLVQVRARSEAGYGPFGQEHHSQTQLDESESWREQLALIAGTAVVGVVLVLVVVIIAVLCLRKQSNGREVEYSDKHGQYLIGHGTKVYIDPFTYEDPNEAVREFAKEIDVSYVKIEEVIGAGEFGEVCRGRLKAPGKKESCVAIKTLKGGYTERQRREFLSEASIMGQFEHPNIIRLEGVVTNSVPVMILTEFMENGALDSFLRLNDGQFTVIQLVGMLRGIASGMRYLAEMSYVHRDLAARNILVNSNLVCKVSDFGLSRFLEENSSDPTYTSSLGGKIPIRWTAPEAIAFRKFTSASDAWSYGIVMWEVMSFGERPYWDMSNQDVINAIEQDYRLPPPPDCPTSLHQLMLDCWQKDRNARPRFPQVVSALDKMIRNPASLKIVARENGGASHPLLDQRQPHYSAFGSVGEWLRAIKMGRYEESFAAAGFGSFEVVSQISAEDLLRIGVTLAGHQKKILASVQHMKSQAKPGAPGGTGGPAQQF
For the molecule B1, the HTS signal in assay [1] is listed as 7,357. Moreover, in assay [2], the ECL signal is 28,275.

B2: 4190326: IMAGE clone protein: Lyn, Yamaguchi sarcoma viral (vyes1) oncogene homolog (protein, UniProt P25911 2-512, looked up)
Tyrosine-protein kinase Lyn: GCIKSKRKDNLNDDEVDSKTQPVRNTDRTIYVRDPTSNKQQRPVPEFHLLPGQRFQTKDPEEQGDIVVALYPYDGIHPDDLSFKKGEKMKVLEEHGEWWKAKSLSSKREGFIPSNYVAKVNTLETEEWFFKDITRKDAERQLLAPGNSAGAFLIRESETLKGSFSLSVRDYDPMHGDVIKHYKIRSLDNGGYYISPRITFPCISDMIKHYQKQSDGLCRRLEKACISPKPQKPWDKDAWEIPRESIKLVKKLGAGQFGEVWMGYYNNSTKVAVKTLKPGTMSVQAFLEEANLMKTLQHDKLVRLYAVVTKEEPIYIITEFMAKGSLLDFLKSDEGGKVLLPKLIDFSAQIAEGMAYIERKNYIHRDLRAANVLVSESLMCKIADFGLARVIEDNEYTAREGAKFPIKWTAPEAINFGCFTIKSDVWSFGILLYEIVTYGKIPYPGRTNADVMSALSQGYRMPRMENCPDELYDIMKMCWKEKAEERPTFDYLQSVLDDFYTATEGQYQQQP
Regarding B2, the HTS signal in assay [1] was 427,178. Besides, the ECL signal in assay [2] is reported as 599,680.

B3: 4238984: IMAGE clone protein: Kdr, kinase insert domain protein receptor (protein, UniProt P35918 20-1345, looked up)
Vascular endothelial growth …: ASVGLPGDFLHPPKLSTQKDILTILANTTLQITCRGQRDLDWLWPNAQRDSEERVLVTECGGGDSIFCKTLTIPRVVGNDTGAYKCSYRDVDIASTVYVYVRDYRSPFIASVSDQHGIVYITENKNKTVVIPCRGSISNLNVSLCARYPEKRFVPDGNRISWDSEIGFTLPSYMISYAGMVFCEAKINDETYQSIMYIVVVVGYRIYDVILSPPHEIELSAGEKLVLNCTARTELNVGLDFTWHSPPSKSHHKKIVNRDVKPFPGTVAKMFLSTLTIESVTKSDQGEYTCVASSGRMIKRNRTFVRVHTKPFIAFGSGMKSLVEATVGSQVRIPVKYLSYPAPDIKWYRNGRPIESNYTMIVGDELTIMEVTERDAGNYTVILTNPISMEKQSHMVSLVVNVPPQIGEKALISPMDSYQYGTMQTLTCTVYANPPLHHIQWYWQLEEACSYRPGQTSPYACKEWRHVEDFQGGNKIEVTKNQYALIEGKNKTVSTLVIQAANVSALYKCEAINKAGRGERVISFHVIRGPEITVQPAAQPTEQESVSLLCTADRNTFENLTWYKLGSQATSVHMGESLTPVCKNLDALWKLNGTMFSNSTNDILIVAFQNASLQDQGDYVCSAQDKKTKKRHCLVKQLIILERMAPMITGNLENQTTTIGETIEVTCPASGNPTPHITWFKDNETLVEDSGIVLRDGNRNLTIRRVRKEDGGLYTCQACNVLGCARAETLFIIEGAQEKTNLEVIILVGTAVIAMFFWLLLVIVLRTVKRANEGELKTGYLSIVMDPDELPLDERCERLPYDASKWEFPRDRLKLGKPLGRGAFGQVIEADAFGIDKTATCKTVAVKMLKEGATHSEHRALMSELKILIHIGHHLNVVNLLGACTKPGGPLMVIVEFCKFGNLSTYLRGKRNEFVPYKSKGARFRQGKDYVGELSVDLKRRLDSITSSQSSASSGFVEEKSLSDVEEEEASEELYKDFLTLEHLICYSFQVAKGMEFLASRKCIHRDLAARNILLSEKNVVKICDFGLARDIYKDPDYVRKGDARLPLKWMAPETIFDRVYTIQSDVWSFGVLLWEIFSLGASPYPGVKIDEEFCRRLKEGTRMRAPDYTTPEMYQTMLDCWHEDPNQRPSFSELVEHLGNLLQANAQQDGKDYIVLPMSETLSMEEDSGLSLPTSPVSCMEEEEVCDPKFHYDNTAGISHYLQNSKRKSRPVSVKTFEDIPLEEPEVKVIPDDSQTDSGMVLASEELKTLEDRNKLSPSFGGMMPSKSRESVASEGSNQTSGYQSGYHSDDTDTTVYSSDEAGLLKMVDAAVHADSGTTLRSPPV
On to B3, for which the HTS signal in assay [1] is listed as 107,459. The ECL signal in assay [2] is given as 61,364.

B4: 4239139: IMAGE clone protein: Fgfr4, fibroblast growth factor receptor 4 (protein, UniProt Q03142 17-799, looked up)
Fibroblast growth factor …: LSLEASEEMEQEPCLAPILEQQEQVLTVALGQPVRLCCGRTERGRHWYKEGSRLASAGRVRGWRGRLEIASFLPEDAGRYLCLARGSMTVVHNLTLLMDDSLTSISNDEDPKTLSSSSSGHVYPQQAPYWTHPQRMEKKLHAVPAGNTVKFRCPAAGNPMPTIHWLKDGQAFHGENRIGGIRLRHQHWSLVMESVVPSDRGTYTCLVENSLGSIRYSYLLDVLERSPHRPILQAGLPANTTAVVGSDVELLCKVYSDAQPHIQWLKHVVINGSSFGADGFPYVQVLKTTDINSSEVEVLYLRNVSAEDAGEYTCLAGNSIGLSYQSAWLTVLPEEDLTWTTATPEARYTDIILYVSGSLVLLVLLLLAGVYHRQVIRGHYSRQPVTIQKLSRFPLARQFSLESRSSGKSSLSLVRGVRLSSSGPPLLTGLVNLDLPLDPLWEFPRDRLVLGKPLGEGCFGQVVRAEAFGMDPSRPDQTSTVAVKMLKDNASDKDLADLVSEMEVMKLIGRHKNIINLLGVCTQEGPLYVIVECAAKGNLREFLRARRPPGPDLSPDGPRSSEGPLSFPALVSCAYQVARGMQYLESRKCIHRDLAARNVLVTEDDVMKIADFGLARGVHHIDYYKKTSNGRLPVKWMAPEALFDRVYTHQSDVWSFEILLWEIFTLGGSPYPGIPVEELFSLLREGHRMERPPNCPSELYGLMRECWHAAPSQRPTFKQLVEALDKVLLAVSEEYLDLRLTFGPFSPSNGDASSTCSSSDSVFSHDPLPLEPSPFPFSDSQTT
With B4, the HTS signal in assay [1] is on record as 7,343. For the same molecule, in assay [2], the ECL signal is listed as 12,588.

(Values after patent US7063946B2, “Methods, reagents, kits and apparatus for protein function analysis” (Meso Scale Technologies, LLC., priority 2001, dated 2006).)
